Test results as given in IntAct's records for PubMed 16096059.

B1: Tethering factor for nuclear proteasome cut8 (Schizosaccharomyces pombe (strain ATCC 38366 / 972)), P38937 (parent)
chain: METLSYSQIKKRKADFDEDISKRARQLPVGEQLPLSRLLQYSDKQQLFTILLQCVEKHPDLARDIRGILPAPSMDTCVETLRKLLINLNDSFPYGGDKRGDYAFNRIREKYMAVLHALNDMVPCYLPPYSTCFEKNITFLDAATNVVHELPEFHNPNHNVYKSQAYYELTGAWLVVLRQLEDRPVVPLLPLEELEEHNKTSQNRMEEALNYLKQLQKNEPLVHERSHTFQQTNPQNNFHRHTNSMNIGNDNGMGWHSMHQYI
partner: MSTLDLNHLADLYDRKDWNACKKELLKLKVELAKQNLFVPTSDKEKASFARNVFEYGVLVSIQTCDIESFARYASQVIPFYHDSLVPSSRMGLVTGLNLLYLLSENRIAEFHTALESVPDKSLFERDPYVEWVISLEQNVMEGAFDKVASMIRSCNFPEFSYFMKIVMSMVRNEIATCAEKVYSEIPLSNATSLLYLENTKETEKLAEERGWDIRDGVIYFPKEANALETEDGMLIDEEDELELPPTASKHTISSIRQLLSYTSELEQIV
B2: Tethering factor for nuclear proteasome cut8 (Schizosaccharomyces pombe (strain ATCC 38366 / 972)), P38937 (parent)
chain: B1 chain
partner: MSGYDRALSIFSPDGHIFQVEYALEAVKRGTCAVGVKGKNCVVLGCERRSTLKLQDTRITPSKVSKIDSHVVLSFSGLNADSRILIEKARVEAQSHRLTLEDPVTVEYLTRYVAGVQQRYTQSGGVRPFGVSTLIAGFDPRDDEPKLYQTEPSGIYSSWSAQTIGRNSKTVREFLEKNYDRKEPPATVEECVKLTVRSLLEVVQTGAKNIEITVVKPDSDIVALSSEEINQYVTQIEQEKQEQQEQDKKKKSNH

Variants of: B1
Settings: with rpn12_schpo rpn12, P50524

| Variant | effect of a mutation on the interaction |
| --- | --- |
| K10R;K11R;K13R;K22R;K44R;K57R | decreasing interaction |

Variants of: B2
Settings: with psa4_yeast PRE6, P40303

| Variant | effect of a mutation on the interaction |
| --- | --- |
| K10R;K11R;K13R;K22R;K44R;K57R | decreasing interaction |
